Experimental data published in the supplement of paper PMC10567573.

B1: SLC6A17 (parent)
chain: HMFTPKLDKMLDPQVWREAATQVF

Variants of: B1
Experiment: protein stability index of a GFP-peptide fusion (GPS, HEK-293T) (PSI 1-6); higher = more stable
Settings: c terminus: a fixed tail appended
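Further: lentivirally expressed fusions sorted by FACS into six bins by GFP to DsRed ratio, PSI derived from sequencing read proportions per bin multiplied by bin number.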

Variant	protein stability index
HMFTPKLDKMLDPLVWREAATQVF [Q14L]	2.14
HMFTPKLDKMLDPFVWREAATQVF [Q14F]	2.13
HMFTPKLDKMLDPYVWREAATQVF [Q14Y]	2.03
HMFTPKLDKMLDPKVWREAATQVF [Q14K]	2.26
HMFTPKLDKMLDPNVWREAATQVF [Q14N]	2.23
HMFTPKLDKMLDPPVWREAATQVF [Q14P]	1.63
HMFTPKLDKMLDPEVWREAATQVF [Q14E]	2.41
HMFTPKLDKMLDPSVWREAATQVF [Q14S]	1.59
HMFTPKLDKMLDPVVWREAATQVF [Q14V]	2.51
HMFTPKLDKMLDPIVWREAATQVF [Q14I]	1.12
HMFTPKLDKMLDPMVWREAATQVF [Q14M]	2.06
HMFTPKLDKMLDPAVWREAATQVF [Q14A]	1.73
HMFTPKLDKMLDPWVWREAATQVF [Q14W]	1.69
HMFTPKLDKMLDPHVWREAATQVF [Q14H]	1.74
HMFTPKLDKMLDPRVWREAATQVF [Q14R]	1.94
HMFTPKLDKMLDPTVWREAATQVF [Q14T]	2.23
HMFTPKLDKMLDPGVWREAATQVF [Q14G]	1.56
HMFTPKLDKPLDPQVWREAATQVF [M10P]	2.4
HMFTPKLDKKLDPQVWREAATQVF [M10K]	1.78
HMFTPKLDKNLDPQVWREAATQVF [M10N]	1.99
HMFTPKLDKGLDPQVWREAATQVF [M10G]	2.15
HMFTPKLDKFLDPQVWREAATQVF [M10F]	2.59
HMFTPKLDKILDPQVWREAATQVF [M10I]	1.74
HMFTPKLDKTLDPQVWREAATQVF [M10T]	1.66

Variant	protein stability index
HMFTPKLDKSLDPQVWREAATQVF [M10S]	2.17
HMFTPKLDKLLDPQVWREAATQVF [M10L]	3.08
HMFTPKLDKWLDPQVWREAATQVF [M10W]	2.05
HMFTPKLDKYLDPQVWREAATQVF [M10Y]	2.23
HMFTPKLDKVLDPQVWREAATQVF [M10V]	1.85
HMFTPKLDKELDPQVWREAATQVF [M10E]	2.57
HMFTPKLDKHLDPQVWREAATQVF [M10H]	1.42
HMFTPKLDKQLDPQVWREAATQVF [M10Q]	2.78
HMFTPKLDKRLDPQVWREAATQVF [M10R]	1.78
HMFTPKLDKMLDPQVIREAATQVF [W16I]	2.33
HMFTPKLDKMLDPQVYREAATQVF [W16Y]	2.62
HMFTPKLDKMLDPQVHREAATQVF [W16H]	3.88
HMFTPKLDKMLDPQVRREAATQVF [W16R]	3.72
HMFTPKLDKMLDPQVGREAATQVF [W16G]	3.27
HMFTPKLDKMLDPQVQREAATQVF [W16Q]	3.06
HMFTPKLDKMLDPQVVREAATQVF [W16V]	2.59
HMFTPKLDKMLDPQVLREAATQVF [W16L]	2.34
HMFTPKLDKMLDPQVTREAATQVF [W16T]	3.05
HMFTPKLDKMLDPQVSREAATQVF [W16S]	2.87
HMFTPKLDKMLDPQVEREAATQVF [W16E]	3.76
HMFTPKLDKMLDPQVDREAATQVF [W16D]	3.83
HMFTPKLDKMLDPQVMREAATQVF [W16M]	2.14
HMFTPKLDKMLDPQVFREAATQVF [W16F]	2.47
HMFTPKLDKMLDPQVKREAATQVF [W16K]	2.94

Variant	protein stability index
HMFTPKLDKMLDPQVCREAATQVF [W16C]	2.75
HMFTPKLDKMLDPQVNREAATQVF [W16N]	3.2
HMFTPKLDKMLDPQVAREAATQVF [W16A]	2.47
HMFTPKLDKMLDPQVPREAATQVF [W16P]	3.78
HMFTPKLDKMLDPQMWREAATQVF [V15M]	1.63
HMFTPKLDKMLDPQWWREAATQVF [V15W]	2.24
HMFTPKLDKMLDPQGWREAATQVF [V15G]	1.96
HMFTPKLDKMLDPQHWREAATQVF [V15H]	2.34
HMFTPKLDKMLDPQEWREAATQVF [V15E]	2.84
HMFTPKLDKMLDPQKWREAATQVF [V15K]	2.39
HMFTPKLDKMLDPQFWREAATQVF [V15F]	2.22
HMFTPKLDKMLDPQAWREAATQVF [V15A]	2.38
HMFTPKLDKMLDPQQWREAATQVF [V15Q]	1.89
HMFTPKLDKMLDPQCWREAATQVF [V15C]	2.12
HMFTPKLDKMLDPQYWREAATQVF [V15Y]	2.12
HMFTPKLDKMLDPQPWREAATQVF [V15P]	2.81
HMFTPKLDKMLDPQNWREAATQVF [V15N]	1.9
HMFTPKLDKMLDPQIWREAATQVF [V15I]	1.35
HMFTPKLDKMLDPQDWREAATQVF [V15D]	2.96
HMFTPKLDKMLDPQLWREAATQVF [V15L]	2.37
HMFTPKLDKMLDPQTWREAATQVF [V15T]	2.66
HMFTPKLDKMLDPQSWREAATQVF [V15S]	2.15
HMFTPKLDKMLDPQRWREAATQVF [V15R]	3.24
HMFTPKLDKMLDPQVWRSAATQVF [E18S]	1.99

Variant	protein stability index
HMFTPKLDKMLDPQVWRMAATQVF [E18M]	1.52
HMFTPKLDKMLDPQVWRCAATQVF [E18C]	1.29
HMFTPKLDKMLDPQVWRIAATQVF [E18I]	1.97
HMFTPKLDKMLDPQVWRHAATQVF [E18H]	1.91
HMFTPKLDKMLDPQVWRLAATQVF [E18L]	1.38
HMFTPKLDKMLDPQVWRAAATQVF [E18A]	2.04
HMFTPKLDKMLDPQVWRKAATQVF [E18K]	1.08
HMFTPKLDKMLDPQVWRVAATQVF [E18V]	2.37
HMFTPKLDKMLDPQVWRFAATQVF [E18F]	1.85
HMFTPKLDKMLDPQVWRTAATQVF [E18T]	1.79
HMFTPKLDKMLDPQVWRNAATQVF [E18N]	2.3
HMFTPKLDKMLDPQVWRGAATQVF [E18G]	1.02
HMFTPKLDKMLDPQVWRYAATQVF [E18Y]	1.75
HMFTPKLDKMLDPQVWRPAATQVF [E18P]	1.86
HMFTPKLDKMLDPQVWRRAATQVF [E18R]	3.18
HMFTPKLDKMLDPQVWRDAATQVF [E18D]	1.87
HMFTPKLDKMLDPQVWRQAATQVF [E18Q]	2.22
HMFTPKLDKMLTPQVWREAATQVF [D12T]	2.45
HMFTPKLDKMLNPQVWREAATQVF [D12N]	1.34
HMFTPKLDKMLIPQVWREAATQVF [D12I]	1.79
HMFTPKLDKMLRPQVWREAATQVF [D12R]	1.81
HMFTPKLDKMLSPQVWREAATQVF [D12S]	1.98
